Laboratory results taken from patent publication US20220347309A1 (ADC THERAPEUTICS, published 2022).

Target: T1, CD25 on human anaplastic large cell lymphoma Karpas-299 cells (human, UniProt P01589 22-272)
T1 construct: whole, on cells; Endogenous antigen on the cell line
T1 sequence (looked up): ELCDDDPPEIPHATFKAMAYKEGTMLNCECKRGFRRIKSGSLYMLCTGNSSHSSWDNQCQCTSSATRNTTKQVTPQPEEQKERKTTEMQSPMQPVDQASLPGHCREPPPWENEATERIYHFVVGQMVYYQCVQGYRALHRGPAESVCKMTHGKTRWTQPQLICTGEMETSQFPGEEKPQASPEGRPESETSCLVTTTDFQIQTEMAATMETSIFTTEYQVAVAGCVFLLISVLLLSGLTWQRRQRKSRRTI
Assay: flow cytometry, serial dilution of antibody on Karpas-299 wt, ADCR and PBDR cells, Alexa Fluor 488 anti-human Fc secondary
Protocol: The cells were then washed and incubated with a F(ab′)2-Goat anti-Human IgG Fc Secondary Antibody conjugated to Alexa Fluor 488. After incubation for 1 hour on ice in the dark the cells were washed and run on a Fortessa X20 flow cytometer, and the mean fluorescence intensity (MFI) determined using the B530/30 laser/filter.

- binding result: binds
B1: HuMax-TAC mAb (antibody, V domains shown)
VH: QVQLVQSGAEVKKPGSSVKVSCKASGGTFSRYIINWVRQAPGQGLEWMGRIIPILGVENYAQKFQGRVTITADKSTSTAYMELSSLRSEDTAVYYCARKDWFDYWGQGTLVTVSS
VL: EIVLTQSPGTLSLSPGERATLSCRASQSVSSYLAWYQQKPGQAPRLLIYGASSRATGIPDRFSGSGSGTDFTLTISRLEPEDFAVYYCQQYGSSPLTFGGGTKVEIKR
notes: also called AB12; CD25 antibody
